According to CN113637074A (SHANGHAI HUAIYUE BIOTECHNOLOGY CO LTD, dated 2021):

Tests used:
带His标签的NKp30蛋白 = target: T1, 带His标签的NKp30蛋白 (human, UniProt O14931 19-138, limits assumed); assay: ELISA, His-tagged protein coated at 1 μg/ml, anti-human IgG Fc-HRP
T1 construct: also called 人NKp30; not shown: His tag
T1 sequence (looked up): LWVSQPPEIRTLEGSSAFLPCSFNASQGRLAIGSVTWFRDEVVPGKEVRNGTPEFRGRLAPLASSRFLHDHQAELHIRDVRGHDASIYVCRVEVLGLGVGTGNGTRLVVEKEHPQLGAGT

带His标签的NKp44蛋白 = target: T2, 带His标签的NKp44蛋白 (human, UniProt O95944 22-190, limits assumed); assay: as above
T2 construct: also called 人NKp44; not shown: His tag
T2 sequence (looked up): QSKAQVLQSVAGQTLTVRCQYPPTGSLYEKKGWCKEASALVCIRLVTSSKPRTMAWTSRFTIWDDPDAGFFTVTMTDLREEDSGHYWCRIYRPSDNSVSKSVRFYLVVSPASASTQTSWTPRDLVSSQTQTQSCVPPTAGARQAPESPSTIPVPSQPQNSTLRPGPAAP

B1: NKp46-1 (antibody, V domains shown)
VH: QVQLVQSGAEVKKPGSSVKVSCKASGGTFSNYGISWVRQAPGQGLEWIGRIIPYFGITNYAQKFQGRVTITADKSTSTAYMELSSLRSEDTAVYYCADNHLLRPGQNYYPWDYWGQGTTVTVSS
VL: DIQMTQSPSSLSASVGDRVTITCRASQGISNALAWYQQKPGKAPKLLIYAASRLESGVPSRFSGSGSGTDFTLTISSLQPEDFATYYCQQHYSTPPTFGQGTKVEIK
notes: Lead antibody from a human common light chain phage library; also called Ab-1; 孔A5
B1: no binding (tested: 10μg/ml) (带His标签的NKp30蛋白); no binding (tested: 10μg/ml) (带His标签的NKp44蛋白).
